Laboratory results reported in patent US20190276496A1 (FUNDACI N PARA LA INVESTIGACI N M DICA APLICADA, published 2019).
[ ]: non-standard residue; d: D form.

T1: Foxp3 in murine CD25+ Treg cells (mouse, UniProt Q99JB6 1-417)
T1 sequence (looked up): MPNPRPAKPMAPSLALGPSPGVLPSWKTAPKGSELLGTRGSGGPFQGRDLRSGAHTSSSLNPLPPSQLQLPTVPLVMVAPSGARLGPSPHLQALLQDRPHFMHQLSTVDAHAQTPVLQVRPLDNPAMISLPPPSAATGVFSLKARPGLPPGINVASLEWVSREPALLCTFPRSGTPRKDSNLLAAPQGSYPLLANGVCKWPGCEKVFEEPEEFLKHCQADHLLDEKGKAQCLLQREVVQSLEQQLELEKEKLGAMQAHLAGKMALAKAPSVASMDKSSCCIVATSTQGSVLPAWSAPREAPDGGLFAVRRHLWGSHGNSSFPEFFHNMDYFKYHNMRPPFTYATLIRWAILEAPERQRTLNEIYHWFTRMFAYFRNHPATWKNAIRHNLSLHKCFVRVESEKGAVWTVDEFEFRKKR


What follows are binders tested against T1, Foxp3 in murine CD25+ Treg cells (assay: cell-based or functional assay).

Row | IC50 (µM) of inhibition of Treg activity, in vitro Treg suppression assay (murine Tconv + Treg, anti-CD3, [3H]-thymidine) [µM] | Binder
1 | 12.5 | Ac-GRAFQSFRKMWPFFAM-NH2 [peptide of SEQ ID NO: 13]
2 | 1.9 | Ac-GRAFQAFRKMWPFFAM-NH2 [peptide of SEQ ID NO: 41]

These binders were tested against human FOXP3 tagged with 6 histidines at the C terminus (human) (UniProt Q9BZS1) (assay: SPR (ProteOn XPR36), FOXP3-6His immobilized on GLM chip, peptide 1-20 µM injected; ratio to p60 (SEQ ID NO: 1)).
Chain of human FOXP3 tagged with 6 histidines at the C terminus (human) (Q9BZS1 other isoform, or with tags, fused parts or gaps): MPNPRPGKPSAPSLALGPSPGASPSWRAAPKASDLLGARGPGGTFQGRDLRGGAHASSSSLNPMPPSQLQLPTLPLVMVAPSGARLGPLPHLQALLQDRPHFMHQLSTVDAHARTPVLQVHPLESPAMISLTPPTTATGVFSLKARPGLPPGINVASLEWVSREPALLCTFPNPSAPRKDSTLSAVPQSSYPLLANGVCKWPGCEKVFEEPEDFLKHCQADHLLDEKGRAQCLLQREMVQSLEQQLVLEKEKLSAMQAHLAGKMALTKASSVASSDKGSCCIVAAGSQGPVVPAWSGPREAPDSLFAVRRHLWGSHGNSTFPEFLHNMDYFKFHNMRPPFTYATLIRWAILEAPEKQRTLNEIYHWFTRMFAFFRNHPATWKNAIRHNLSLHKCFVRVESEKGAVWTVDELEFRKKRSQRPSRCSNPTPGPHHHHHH

Row | Binder | Ratio binding Peptide/p60 (fold change)
3 | Ac-GRAFQSFRKMWPFFAM-NH2 [peptide of SEQ ID NO: 13] | 3.2
4 | H-R[dA]FQSFRKMWPFFAM-OH [peptide of SEQ ID NO: 6] | 3.3
5 | RDWQSFRKMWPFFAM [peptide of SEQ ID NO: 16] | 3.7
6 | RDFQNFRKMWPFFAM [peptide of SEQ ID NO: 21] | 3.2
7 | RDLQSFRKMWPFFAM [peptide of SEQ ID NO: 18] | 1.9
8 | RDFQEFRKMWPFFAM [peptide of SEQ ID NO: 23] | 1.3
9 | RWFQSFRKMWPFFAM [peptide of SEQ ID NO: 9] | 1.4
10 | RKFQSFRKMWPFFAM [peptide of SEQ ID NO: 12] | 2.2
11 | RDYQSFRKMWPFFAM [peptide of SEQ ID NO: 17] | 3.3
12 | RSFQSFRKMWPFFAM [peptide of SEQ ID NO: 7] | 1.4
13 | RNFQSFRKMWPFFAM [peptide of SEQ ID NO: 11] | 1.4
14 | RYFQSFRKMWPFFAM [peptide of SEQ ID NO: 8] | 1.4
15 | RDFQWFRKMWPFFAM [peptide of SEQ ID NO: 22] | 2.4
16 | RDFQRFRKMWPFFAM [peptide of SEQ ID NO: 20] | 3.7
17 | RDFQYFRKMWPFFAM [peptide of SEQ ID NO: 24] | 4.6

Continued, values first:

Row | Ratio binding Peptide/p60 (fold change) | Binder
18 | 4.1 | H-RAFQAFRKMWPFFAM-OH [peptide of SEQ ID NO: 42]
19 | 25.3 | cyclo(R[dA]FQAFRKMWPFFAM) (SMILES CSCC[C@@H]1NC(=O)[C@H](C)NC(=O)[C@H](Cc2ccccc2)NC(=O)[C@H](Cc2ccccc2)NC(=O)[C@@H]2CCCN2C(=O)[C@H](Cc2c[nH]c3ccccc23)NC(=O)[C@H](CCSC)NC(=O)[C@H](CCCCN)NC(=O)[C@H](CCCNC(=N)N)NC(=O)[C@H](Cc2ccccc2)NC(=O)[C@H](C)NC(=O)[C@H](CCC(N)=O)NC(=O)[C@H](Cc2ccccc2)NC(=O)[C@@H](C)NC(=O)[C@H](CCCNC(=N)N)NC1=O) [peptide of SEQ ID NO: 54]
20 | 2.6 | RDFQSFRHMWPFFAM [peptide of SEQ ID NO: 28]
21 | 3.7 | Ac-GRAFQAFRKMWPFFAM-NH2 [peptide of SEQ ID NO: 41]
22 | 4 | RDFQKFRKMWPFFAM [peptide of SEQ ID NO: 25]
23 | 1.3 | RDFQSFRKMWYFFAM [peptide of SEQ ID NO: 35]
24 | 13 | cyclo(R[dA]FQAFRKMWPFFAM) (SMILES CSCC[C@@H]1NC(=O)[C@H](C)NC(=O)[C@H](Cc2ccccc2)NC(=O)[C@H](Cc2ccccc2)NC(=O)[C@@H]2CCCN2C(=O)[C@H](Cc2c[nH]c3ccccc23)NC(=O)[C@H](CCSC)NC(=O)[C@H](CCCCN)NC(=O)[C@H](CCCNC(=N)N)NC(=O)[C@H](Cc2ccccc2)NC(=O)[C@H](C)NC(=O)[C@H](CCC(N)=O)NC(=O)[C@H](Cc2ccccc2)NC(=O)[C@@H](C)NC(=O)[C@H](CCCNC(=N)N)NC1=O) [peptide of SEQ ID NO: 52]
25 | 5 | RDFQSFRKMWPFFAM (head-to-tail cyclic: linker L is C(=O) between the N-terminal amino group of residue 1 and the alpha carbon of residue 15) [peptide of SEQ ID NO: 49]
26 | 1.1 | Ac-GRDFQSFRKMWAFFA[dM]-NH2 (SMILES CSCC[C@H](NC(=O)[C@H](CCCCN)NC(=O)[C@H](CCCNC(=N)N)NC(=O)[C@H](Cc1ccccc1)NC(=O)[C@H](CO)NC(=O)[C@H](CCC(N)=O)NC(=O)[C@H](Cc1ccccc1)NC(=O)[C@H](CC(=O)O)NC(=O)[C@H](CCCNC(=N)N)NC(=O)CNC(C)=O)C(=O)N[C@@H](Cc1c[nH]c2ccccc12)C(=O)N[C@@H](C)C(=O)N[C@@H](Cc1ccccc1)C(=O)N[C@@H](Cc1ccccc1)C(=O)N[C@@H](C)C(=O)N[C@H](CCSC)C(N)=O) [peptide of SEQ ID NO: 38]
27 | 21.4 | cyclo(R[dA]FQAFRKMWPFFAM) (SMILES CSCC[C@@H]1NC(=O)[C@H](C)NC(=O)[C@H](Cc2ccccc2)NC(=O)[C@H](Cc2ccccc2)NC(=O)[C@@H]2CCCN2C(=O)[C@H](Cc2c[nH]c3ccccc23)NC(=O)[C@H](CCSC)NC(=O)[C@H](CCCCN)NC(=O)[C@H](CCCNC(=N)N)NC(=O)[C@H](Cc2ccccc2)NC(=O)[C@H](C)NC(=O)[C@H](CCC(N)=O)NC(=O)[C@H](Cc2ccccc2)NC(=O)[C@@H](C)NC(=O)[C@H](CCCNC(=N)N)NC1=O) [peptide of SEQ ID NO: 51]
28 | 2.2 | cyclo(R[dA]FQAFRKMWPFFAM) (SMILES CSCC[C@@H]1NC(=O)[C@H](C)NC(=O)[C@H](Cc2ccccc2)NC(=O)[C@H](Cc2ccccc2)NC(=O)[C@@H]2CCCN2C(=O)[C@H](Cc2c[nH]c3ccccc23)NC(=O)[C@H](CCSC)NC(=O)[C@H](CCCCN)NC(=O)[C@H](CCCNC(=N)N)NC(=O)[C@H](Cc2ccccc2)NC(=O)[C@H](C)NC(=O)[C@H](CCC(N)=O)NC(=O)[C@H](Cc2ccccc2)NC(=O)[C@@H](C)NC(=O)[C@H](CCCNC(=N)N)NC1=O) [peptide of SEQ ID NO: 53]
29 | 1.3 | RDFQSFRKMWVFFAM [peptide of SEQ ID NO: 33]
30 | 3 | Ac-GRAFQSFRKMWAFFAM-NH2 [peptide of SEQ ID NO: 44]
31 | 1.4 | RDFQSFRRMWPFFAM [peptide of SEQ ID NO: 29]
32 | 3.3 | Ac-GRDFQ[dA]FRKMWPFFAM-NH2 (SMILES CSCC[C@H](NC(=O)[C@H](C)NC(=O)[C@H](Cc1ccccc1)NC(=O)[C@H](Cc1ccccc1)NC(=O)[C@@H]1CCCN1C(=O)[C@H](Cc1c[nH]c2ccccc12)NC(=O)[C@H](CCSC)NC(=O)[C@H](CCCCN)NC(=O)[C@H](CCCNC(=N)N)NC(=O)[C@H](Cc1ccccc1)NC(=O)[C@@H](C)NC(=O)[C@H](CCC(N)=O)NC(=O)[C@H](Cc1ccccc1)NC(=O)[C@H](CC(=O)O)NC(=O)[C@H](CCCNC(=N)N)NC(=O)CNC(C)=O)C(N)=O) [peptide of SEQ ID NO: 39]
33 | 2.8 | RDFQSFRKMWRFFAM [peptide of SEQ ID NO: 31]
34 | 4.9 | Ac-GR[dA]FQ[dA]FRKMWPFFAM-NH2 (SMILES CSCC[C@H](NC(=O)[C@H](C)NC(=O)[C@H](Cc1ccccc1)NC(=O)[C@H](Cc1ccccc1)NC(=O)[C@@H]1CCCN1C(=O)[C@H](Cc1c[nH]c2ccccc12)NC(=O)[C@H](CCSC)NC(=O)[C@H](CCCCN)NC(=O)[C@H](CCCNC(=N)N)NC(=O)[C@H](Cc1ccccc1)NC(=O)[C@@H](C)NC(=O)[C@H](CCC(N)=O)NC(=O)[C@H](Cc1ccccc1)NC(=O)[C@@H](C)NC(=O)[C@H](CCCNC(=N)N)NC(=O)CNC(C)=O)C(N)=O) [peptide of SEQ ID NO: 43]
35 | 2.2 | Ac-GRDFQSFRKMW[dA]FFAM-NH2 (SMILES CSCC[C@H](NC(=O)[C@H](C)NC(=O)[C@H](Cc1ccccc1)NC(=O)[C@H](Cc1ccccc1)NC(=O)[C@@H](C)NC(=O)[C@H](Cc1c[nH]c2ccccc12)NC(=O)[C@H](CCSC)NC(=O)[C@H](CCCCN)NC(=O)[C@H](CCCNC(=N)N)NC(=O)[C@H](Cc1ccccc1)NC(=O)[C@H](CO)NC(=O)[C@H](CCC(N)=O)NC(=O)[C@H](Cc1ccccc1)NC(=O)[C@H](CC(=O)O)NC(=O)[C@H](CCCNC(=N)N)NC(=O)CNC(C)=O)C(N)=O) [peptide of SEQ ID NO: 40]
36 | 1.4 | RDFQSFRKMWNFFAM [peptide of SEQ ID NO: 32]
37 | 4.1 | RDFQSFRKMWKFFAM [peptide of SEQ ID NO: 37]
